Reference: patent publication US20220017591A1 (AstraZeneca / MedImmune, published 2022)
Where a chain is given by its changes, count along the chain named. Like-named read-outs stand apart in the source and are kept apart here.

T1: human RXFP1 (human, UniProt Q9HBX9 1-757)
T1 sequence (looked up): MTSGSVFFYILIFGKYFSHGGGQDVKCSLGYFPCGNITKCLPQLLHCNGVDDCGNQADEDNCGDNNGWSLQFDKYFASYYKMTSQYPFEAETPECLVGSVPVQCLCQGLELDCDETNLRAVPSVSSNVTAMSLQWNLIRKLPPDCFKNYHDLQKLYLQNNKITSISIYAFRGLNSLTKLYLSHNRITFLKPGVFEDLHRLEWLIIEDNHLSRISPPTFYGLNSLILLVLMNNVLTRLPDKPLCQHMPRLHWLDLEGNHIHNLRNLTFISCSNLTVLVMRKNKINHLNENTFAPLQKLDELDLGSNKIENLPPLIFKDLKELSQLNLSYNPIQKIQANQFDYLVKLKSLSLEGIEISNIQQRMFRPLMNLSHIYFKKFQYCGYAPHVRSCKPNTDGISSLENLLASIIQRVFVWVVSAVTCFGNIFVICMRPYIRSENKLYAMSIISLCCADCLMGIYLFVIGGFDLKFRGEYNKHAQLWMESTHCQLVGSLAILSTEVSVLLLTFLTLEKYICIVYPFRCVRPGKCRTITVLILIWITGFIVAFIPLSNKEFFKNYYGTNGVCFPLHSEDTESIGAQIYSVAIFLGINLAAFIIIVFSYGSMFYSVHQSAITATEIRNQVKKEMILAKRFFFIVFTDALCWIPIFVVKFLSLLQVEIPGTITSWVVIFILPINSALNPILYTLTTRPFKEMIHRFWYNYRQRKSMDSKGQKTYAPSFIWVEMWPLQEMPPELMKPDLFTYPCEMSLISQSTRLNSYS

T2: mouse RXFP1 (mouse, UniProt Q6R6I7 1-758)
T2 sequence (looked up): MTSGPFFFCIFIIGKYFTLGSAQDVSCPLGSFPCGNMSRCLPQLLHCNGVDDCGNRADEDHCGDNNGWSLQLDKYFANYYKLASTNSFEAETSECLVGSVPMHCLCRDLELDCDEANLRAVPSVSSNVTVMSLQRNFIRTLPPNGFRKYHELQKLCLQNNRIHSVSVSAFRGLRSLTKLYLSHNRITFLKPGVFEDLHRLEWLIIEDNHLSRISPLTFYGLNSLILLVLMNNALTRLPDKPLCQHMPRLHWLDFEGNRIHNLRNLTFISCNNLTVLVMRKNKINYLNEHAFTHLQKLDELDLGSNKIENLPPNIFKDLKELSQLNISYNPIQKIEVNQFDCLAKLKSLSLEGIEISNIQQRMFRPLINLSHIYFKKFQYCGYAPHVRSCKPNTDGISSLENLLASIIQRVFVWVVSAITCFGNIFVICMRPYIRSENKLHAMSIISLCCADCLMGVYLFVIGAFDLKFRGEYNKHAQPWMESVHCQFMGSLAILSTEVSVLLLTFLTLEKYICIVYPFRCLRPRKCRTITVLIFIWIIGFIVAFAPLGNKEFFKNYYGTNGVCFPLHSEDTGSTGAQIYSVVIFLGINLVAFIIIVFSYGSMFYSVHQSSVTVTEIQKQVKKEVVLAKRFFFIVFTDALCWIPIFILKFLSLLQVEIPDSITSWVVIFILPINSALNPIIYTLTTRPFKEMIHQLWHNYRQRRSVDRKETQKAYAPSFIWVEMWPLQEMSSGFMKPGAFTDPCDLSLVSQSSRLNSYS

B1: RELAX0014 (recombinant murine Relaxin-1) (ligand)
chain 1: MRVSEEWMDGFIRMCGREYARELIKICGASVGR
chain 2: ESGGLMSQQCCHVGCSRRSIAKLYC
B2: RELAX0117 (Fc fusion)
chain 1: QLYSALANKCCHVGCTKRSLARFCAAAGGGGSGGGGSGGGGSGGGGSACPPCPAPEFEGGPSVFLFPPKPKDTLMISRTPEVTCVVVDVSHEDPEVKFNWYVDGVEVHNAKTKPREEQYNSTYRVVSVLTVLHQDWLNGKEYKCKVSNKALPASIEKTISKAKGQPREPQVYTLPPCREEMTKNQVSLWCLVKGFYPSDIAVEWESNGQPENNYKTTPPVLDSDGSFFLYSKLTVDKSRWQQGNVFSCSVMHEALHNHYTQKSLSLSPGGGGGSGGGGSGGGGSGGGGGSQLYSALANKCCHVGCTKRSLARFC
chain 2: SWMEEVIKLCGRELVRAQIAICGMSTWSAAAGGGGSGGGGSGGGGSGGGGSACPPCPAPEFEGGPSVFLFPPKPKDTLMISRTPEVTCVVVDVSHEDPEVKFNWYVDGVEVHNAKTKPREEQYNSTYRVVSVLTVLHQDWLNGKEYKCKVSNKALPASIEKTISKAKGQPREPQVCTLPPSREEMTKNQVSLSCAVKGFYPSDIAVEWESNGQPENNYKTTPPVLDSDGSFFLVSKLTVDKSRWQQGNVFSCSVMHEALHNHYTQKSLSLSPGGGGGSGGGGSGGGGSGGGGGSSWMEEVIKLCGRELVRAQIAICGMSTWS
B3: RELAX0013 (recombinant human Relaxin-2) (ligand)
chain 1: DSWMEEVIKLCGRELVRAQIAICGMSTWS
chain 2: QLYSALANKCCHVGCTKRSLARFC
B4: RELAX0023 (Fc fusion)
chain 1: DKTHTCPPCPAPEFEGGPSVFLFPPKPKDTLMISRTPEVTCVVVDVSHEDPEVKFNWYVDGVEVHNAKTKPREEQYNSTYRVVSVLTVLHQDWLNGKEYKCKVSNKALPASIEKTISKAKGQPREPQVYTLPPCREEMTKNQVSLWCLVKGFYPSDIAVEWESNGQPENNYKTTPPVLDSDGSFFLYSKLTVDKSRWQQGNVFSCSVMHEALHNHYTQKSLSLSPGGGGGSGGGGSGGGGSGGGGGSQLYSALANKCCHVGCTKRSLARFC
chain 2: DKTHTCPPCPAPEFEGGPSVFLFPPKPKDTLMISRTPEVTCVVVDVSHEDPEVKFNWYVDGVEVHNAKTKPREEQYNSTYRVVSVLTVLHQDWLNGKEYKCKVSNKALPASIEKTISKAKGQPREPQVCTLPPSREEMTKNQVSLSCAVKGFYPSDIAVEWESNGQPENNYKTTPPVLDSDGSFFLVSKLTVDKSRWQQGNVFSCSVMHEALHNHYTQKSLSLSPGGGGGSGGGGSGGGGSGGGGGSSWMEEVIKLCGRELVRAQIAICGMSTWS
B5: RELAX0019 (Fc fusion)
chain 1: GGAGGACPPCPAPEFEGGPSVFLFPPKPKDTLMISRTPEVTCVVVDVSHEDPEVKFNWYVDGVEVHNAKTKPREEQYNSTYRVVSVLTVLHQDWLNGKEYKCKVSNKALPASIEKTISKAKGQPREPQVYTLPPCREEMTKNQVSLWCLVKGFYPSDIAVEWESNGQPENNYKTTPPVLDSDGSFFLYSKLTVDKSRWQQGNVFSCSVMHEALHNHYTQKSLSLSPGGGGGSGGGGSGGGGSGGGGGSQLYSALANKCCHVGCTKRSLARFC
chain 2: GGAGGACPPCPAPEFEGGPSVFLFPPKPKDTLMISRTPEVTCVVVDVSHEDPEVKFNWYVDGVEVHNAKTKPREEQYNSTYRVVSVLTVLHQDWLNGKEYKCKVSNKALPASIEKTISKAKGQPREPQVCTLPPSREEMTKNQVSLSCAVKGFYPSDIAVEWESNGQPENNYKTTPPVLDSDGSFFLVSKLTVDKSRWQQGNVFSCSVMHEALHNHYTQKSLSLSPGGGGGSGGGGSGGGGSGGGGGSSWMEEVIKLCGRELVRAQIAICGMSTWS
B6: RELAX0021 (Fc fusion)
chain 1: B5 chain 1 with C135S
chain 2: B5 chain 2 with C130Y

Key:
Test in all cases: cell-based or functional assay
human RXFP1 [1] = biological target: T1, human RXFP1
mouse RXFP1 [2] = biological target: T2, mouse RXFP1
human RXFP2 [3] = biological target: T3, human RXFP2 (human, UniProt Q8WXD0 1-754)
human RXFP1 [4] = biological target: T1, human RXFP1; remark: listed apart in the source
mouse RXFP1 [5] = biological target: T2, mouse RXFP1; remark: listed apart in the source
human RXFP2 [6] = biological target: T3, human RXFP2; remark: listed apart in the source
human RXFP1 [7] = biological target: T1, human RXFP1; remark: listed apart in the source
mouse RXFP1 [8] = biological target: T2, mouse RXFP1; remark: listed apart in the source
human RXFP2 [9] = biological target: T3, human RXFP2; remark: listed apart in the source
human RXFP1 [10] = biological target: T1, human RXFP1; remark: listed apart in the source

T3 sequence (Q8WXD0 whole entry): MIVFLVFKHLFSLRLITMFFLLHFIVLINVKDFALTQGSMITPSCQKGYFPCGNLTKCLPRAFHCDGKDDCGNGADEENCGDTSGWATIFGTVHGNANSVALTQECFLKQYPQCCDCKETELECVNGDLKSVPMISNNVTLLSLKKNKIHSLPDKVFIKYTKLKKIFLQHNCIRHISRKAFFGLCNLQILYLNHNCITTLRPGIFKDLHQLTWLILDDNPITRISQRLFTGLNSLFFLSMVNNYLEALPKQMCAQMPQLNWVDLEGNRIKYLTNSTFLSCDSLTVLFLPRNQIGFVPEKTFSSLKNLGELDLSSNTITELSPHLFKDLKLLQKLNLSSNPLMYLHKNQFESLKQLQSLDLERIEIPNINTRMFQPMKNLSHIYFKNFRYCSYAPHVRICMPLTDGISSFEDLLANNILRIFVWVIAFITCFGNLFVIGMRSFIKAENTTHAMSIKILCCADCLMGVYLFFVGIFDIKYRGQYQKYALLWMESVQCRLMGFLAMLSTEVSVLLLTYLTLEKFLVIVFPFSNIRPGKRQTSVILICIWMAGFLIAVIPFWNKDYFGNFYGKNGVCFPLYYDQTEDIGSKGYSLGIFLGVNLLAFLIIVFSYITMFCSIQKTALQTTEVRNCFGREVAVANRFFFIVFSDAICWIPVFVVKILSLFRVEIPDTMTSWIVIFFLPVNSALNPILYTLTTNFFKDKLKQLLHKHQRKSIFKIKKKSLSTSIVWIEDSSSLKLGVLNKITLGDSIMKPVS

Binder	EC50 hRXFP1 (M), cAMP assay (human RXFP1 [1])	EC50 mRXFP1 (M), cAMP assay (mouse RXFP1 [2])	EC50 hRXFP2 (M), cAMP assay (human RXFP2 [3])	EC50 hRXFP1 (M), cAMP assay (human RXFP1 [4])	EC50 mRXFP1 (M), cAMP assay (mouse RXFP1 [5])	EC50 hRXFP2 (M), cAMP assay (human RXFP2 [6])	EC50 hRXFP1 (M), cAMP assay (human RXFP1 [7])	EC50 mRXFP1 (M), cAMP assay (mouse RXFP1 [8])	EC50 hRXFP2 (M), cAMP assay (human RXFP2 [9])	biological activity (EC50), cAMP assay (human RXFP1 [10])
B1	4.47e-12 M	2.37e-12 M	1.78e-12 M	4.47e-12 M	2.37e-12 M	1.78e-12 M	4.47e-12 M	2.37e-12 M	1.78e-12 M	–
B2	1.06e-11 M	1.74e-11 M	1.61e-08 M	–	–	–	–	–	–	~10 pM
B3	1.15e-12 M	7.54e-13 M	1.75e-09 M	1.15e-12 M	7.54e-13 M	1.75e-09 M	1.15e-12 M	7.54e-13 M	1.75e-09 M	–
B4	3.77e-11 M	3.27e-11 M	3.24e-08 M	3.32e-11 M	1.36e-11 M	4.2e-08 M	–	–	–	–
B5	3.57e-11 M	9.1e-12 M	3.42e-08 M	5.81e-11 M	2.24e-11 M	4.4e-08 M	5.81e-11 M	2.24e-11 M	4.4e-08 M	–
B6	8.27e-11 M	4.14e-11 M	–	–	–	–	–	–	–	~80 pM
